The target in the test is FrpB F3-3 variant (Neisseria meningitidis). Put plainly: crystal structure; FrpB F3-3, space group P212121, three copies in the asymmetric unit about a non-crystallographic 3-fold axis, 2.40 Å; C8E5 detergent; crystals from the monomeric SEC peak.

The term stoichiometry N denotes a count of units in the complex or per binding partner. On to FrpB F3-3 variant (natural protein), for which the stoichiometry N turned out to be 3.

The values above are taken from article PMC3574120.
